Data on two molecules can be found in publication PMC10651892, “A supramolecular system mimicking the infection process of an enveloped virus through membrane fusion” (Scientific Reports, 2023).

To fix the notation:
B1: β-annulus-EE peptide (peptide)
peptide: INHVGGTGGAIMAPVAVTRQLVGSEE
notes: 24-residue β-annulus peptide involved in the formation of the dodecahedral internal skeleton of tomato bushy stunt virus (capsid protein); two anionic amino acids (Glu) added at the C-terminal side by design; Self-assembles into the anionic artificial viral capsid; also called 26-residue β-annulus-EE peptide; source: synthetic peptide (Fmoc solid-phase method, purified by reverse-phase HPLC)

Data set [1] deals with the molecule itself. The data set can be described thus: dynamic light scattering; 90 μM β-annulus-EE peptide and 10 μM TMR-β-annulus-EE peptide co-assembled (molar ratio 9:1) in 10 mM phosphate buffer (pH 7.0) containing 1% DMSO, 25 °C.
The target of the data set “β-annulus-EE peptide” is B1. Described as above. The following applies: both partners purified.

Where no end group is shown, it is not given here. TMR‑5‑maleimide = tetramethylrhodamine-5-maleimide

On to B1, for which the binding result in data set [1] is listed as “binds”.

B2: TMR-β-annulus-EE peptide (peptide)
peptide: C(TMR‑5‑maleimide)INHVGGTGGAIMAPVAVTRQLVGSEE
notes: Cys added at the N-terminus to carry the TMR dye; 24-residue β-annulus peptide involved in the formation of the dodecahedral internal skeleton of tomato bushy stunt virus (capsid protein); two anionic amino acids (Glu) added at the C-terminal side by design; also called Cys-β-annulus-EE peptide modified with TMR-maleimide; source: synthetic peptide (Fmoc solid-phase method; Michael addition of …)
On to B2, for which the binding result in the data set with β-annulus-EE peptide is on record as “binds”.
